For orientation: Kd means the constant that tells how readily two partners part at equilibrium. Read a high Kd as lower affinity. One may read the stoichiometry N as the number of molecules, sites or subunits per partner or assembly.

Values joined by “and” are separate entries in the source; they are usually repeats but may differ in a detail not shown here. Equal entries are not always repeated.

Kd and stoichiometry N data for two substances are collected here from PMC2528193.

For data set [1], the system named is PfHUp (processed PfHU, bacterial histone-like protein) (Plasmodium falciparum). Description: EMSA. For orientation: A gel shift assay detects complexes by their altered migration in electrophoresis.
For data set [2], the target named is predicted processed PfHU (P. falciparum bacterial histone-like protein), recombinant (P. falciparum). Description: cross-linking.
The target is the same in data set [3]. Description: SDS-resistant dimer on SDS-PAGE with anti-His Western blot. For orientation: A western blot detects proteins with antibodies after separation by electrophoresis.

The substance 30 bp probe showed a Kd in data set [1] of 62.7 nM.

Turning to “predicted processed PfHU (P. falciparum bacterial histone-like protein), recombinant (domain or fragment)”, the stoichiometry N was 2 and 4 in data set [2]; 2 in data set [3].
